Common to all, as to test: ITC
The target in one data set is T1, MepR(F27L/F104A) (Staphylococcus aureus, UniProt Q5Y812 1-139, F27L;F104A).
T1 sequence: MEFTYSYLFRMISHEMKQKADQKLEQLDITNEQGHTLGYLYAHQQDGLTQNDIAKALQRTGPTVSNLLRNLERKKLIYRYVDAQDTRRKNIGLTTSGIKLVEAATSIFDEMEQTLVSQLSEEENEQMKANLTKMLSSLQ

A further data set deals with T2, MepR WT (Staphylococcus aureus, UniProt Q5Y812 1-139).
T2 sequence: T1 sequence with L27F, A104F

The next data set has as its target T3, MepR(Q18A) (Staphylococcus aureus, UniProt Q5Y812 1-139, Q18A).
T3 sequence: T1 sequence with Q18A, L27F, A104F

Another data set concerns the target T4, MepR(A103S) (Staphylococcus aureus, UniProt Q5Y812 1-139, A103S).
T4 sequence: T1 sequence with L27F, A103S, A104F

For one molecule, Kd results are on record in article PMC3760248.

Positions count from the first letter of the chain named.

B1: mepR operator, palindromic 26-mer (dsDNA)
DNA 1: TATTTAGTTAGATATCTAACTAAATA
DNA 2: TATTTAGTTAGATATCTAACTAAATA
The Kd is the concentration at which binding is half-saturated. Lower therefore signals a tighter complex. In the case of B1, the Kd in the data set with MepR(F27L/F104A) is 32.3 nM; with MepR WT, 36.6 nM; in the data set with MepR(Q18A), 34.1 nM; with MepR(A103S) it was 42.6 nM.
